These results are taken from paper PMC3401450 (Nucleic Acids Research, 2012).

As usually defined, the stoichiometry N is the number of molecules, sites or subunits per partner or assembly. The Kd is the concentration at which binding is half-saturated.

Data set [1] has as its target Full-length Dreb2a fused to His-tag and GB1-tag (GB1-Dreb2a f.l.) (A. thaliana) (UniProt O82132). Briefly: cross-linking.
For the next data set, the target named is Dreb2a f.l. (GB1 fusion) (Arabidopsis thaliana, UniProt O82132 1-335). Briefly: EMSA.
Data set [2] addresses Dreb2a f.l. (GB1 fusion);Med25 551-680 (ACID domain) (Arabidopsis thaliana;Arabidopsis …, UniProt O82132;Q7XYY2 1-335;551-680, |). Briefly: EMSA supershift.
Data set [3] concerns the target T1, Full-length Dreb2a fused to His-tag and GB1-tag (GB1-Dreb2a f.l.) (A. thaliana, UniProt O82132 1-335). Kind of data set: cross-linking.
Data set [4] addresses T2, Dreb2a 168-335 (binding domain and activation domain of Dreb2a) (A. thaliana, UniProt O82132 168-335).
T2 sequence (looked up): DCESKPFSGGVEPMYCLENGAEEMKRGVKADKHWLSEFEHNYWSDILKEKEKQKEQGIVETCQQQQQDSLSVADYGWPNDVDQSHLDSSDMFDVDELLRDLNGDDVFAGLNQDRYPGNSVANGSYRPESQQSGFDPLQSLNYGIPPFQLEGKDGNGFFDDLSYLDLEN
Kind of data set: SPR. For orientation: Surface plasmon resonance follows binding to a sensor surface in real time, without labels.

Data set [5] concerns the target T1, Full-length Dreb2a fused to His-tag and …. Briefly: SPR.

Values joined by “and” are separate entries in the source; they are usually repeats but may differ in a detail not shown here. Equal values may be shown once.

Turning to “Med25 551-680-GST (GST-tagged ACID domain of Arabidopsis thaliana Med25) (from UniProt Q7XYY2 551-680) (domain or fragment)”, the stoichiometry N in data set [1] is 1 and 2.

B1: 29-nt rd29A mutated DRE mut-probe (dsDNA)
DNA 1: AAAGATATACTACTTTTATGAGTTCCAAA
DNA 2: TTTGGAACTCATAAAAGTAGTATATCTTT
For the molecule B1, in the data set with Dreb2a f.l. (GB1 fusion), the binding result is “no binding”.

B2: 29-nt rd29A DRE Wt-probe (dsDNA)
DNA 1: AAAGATATACTACCGACATGAGTTCCAAA
DNA 2: TTTGGAACTCATGTCGGTAGTATATCTTT
Consider B2, for which the binding result (with Dreb2a f.l. (GB1 fusion); in data set [2]) was “binds” throughout.

B3: Med25 551-680 (ACID domain of the Med25 mediator subunit from Arabidopsis thaliana), GST-tag removed (domain or fragment, A. thaliana, UniProt Q7XYY2 551-680, looked up)
chain: TSQSKYVKVWEGNLSGQRQGQPVLITRLEGYRSASASDSLAANWPPTMQIVRLISQDHMNNKQYVGKADFLVFRAMSQHGFLGQLQDKKLCAVIQLPSQTLLLSVSDKACRLIGMLFPGDMVVFKPQIPN
For the molecule B3, the “stoichiometry N” value in data set [3] is 2. Also, the Kd was about 1000 nM in data set [4] and about 100 nM in data set [5].
